{
  "source": "paper PMC8764530",
  "about": "“Pseudomonas aeruginosa C-Terminal Processing Protease CtpA Assembles into a Hexameric Structure That Requires Activation by a Spiral-Shaped Lipoprotein-Binding Partner” (mBio, 2022)",
  "data": [
    {"target": "the molecule itself", "assay": "SEC; gel filtration of CtpA proteins, Superdex 200 prep-grade (16 × 600 mm), 10 mM Tris pH 8.0, 150 mM NaCl", "values": [
      {"protein": "CtpA-L426K L430K (enzyme, Pseudomonas aeruginosa CtpA, ΔN37 construct (amino acid 38 to the C terminus, Asn-436) with L426K and L430K; also called LLKK; source: E. coli BL21(DE3), purified (HiTrap-Ni, thrombin, HiTrap-Q, Superdex 200); not shown: His6, N-terminal, cleaved) SAPLPLDELRTFAEVLDRVKAAYVEPVDDKTLLENAIKGMLSNLDPHSAYLGPEDFAELQESTSGEFGGLGIEVGSEDGFIKVVSPIDDTPAARAGIQPGDLIVQIDGKPTKGQSMTEAVDSMRGKAGSPITLTIVRDGGRPFDVELKRAIIKVKSVKSQVLEPGYAYLRITQFQVNTGEEVVKALNQLRKDNKGRLKGLVLDLRNNPGGVLQSAVEVADAFLTKGLIVYTKGRIANSELRFSADPADPSDKVPLVVLINGGSASAAEIVAGALQDQKRAILMGTDSFGKGSVQTVLPLNNDRALKLTTALYYTPNGRSIQAQGIVPDIEVGRAKVTQERSSFEGFKEADLQGHLANGNGGADRPTGKRAAPSERPQDSDYQLSQALSKLKGKSVTRGN", "stoichiometry N": "~2"},
      {"protein": "CtpA-L426A L430A (enzyme, Pseudomonas aeruginosa CtpA, ΔN37 construct (amino acid 38 to the C terminus, Asn-436) with L426A and L430A; also called LLAA; source: E. coli BL21(DE3), purified (HiTrap-Ni, thrombin, HiTrap-Q, Superdex 200); not shown: His6, N-terminal, cleaved) SAPLPLDELRTFAEVLDRVKAAYVEPVDDKTLLENAIKGMLSNLDPHSAYLGPEDFAELQESTSGEFGGLGIEVGSEDGFIKVVSPIDDTPAARAGIQPGDLIVQIDGKPTKGQSMTEAVDSMRGKAGSPITLTIVRDGGRPFDVELKRAIIKVKSVKSQVLEPGYAYLRITQFQVNTGEEVVKALNQLRKDNKGRLKGLVLDLRNNPGGVLQSAVEVADAFLTKGLIVYTKGRIANSELRFSADPADPSDKVPLVVLINGGSASAAEIVAGALQDQKRAILMGTDSFGKGSVQTVLPLNNDRALKLTTALYYTPNGRSIQAQGIVPDIEVGRAKVTQERSSFEGFKEADLQGHLANGNGGADRPTGKRAAPSERPQDSDYQLSQALSALKGASVTRGN", "stoichiometry N": "~2"},
      {"protein": "CtpA(ΔC6) (enzyme, Pseudomonas aeruginosa CtpA, ΔN37 construct (from amino acid 38) with the last six residues Ser-431 to Asn-436 removed; also called CtpA(ΔC6) dimer; source: E. coli BL21(DE3), purified (HiTrap-Ni, thrombin, HiTrap-Q, Superdex 200); not shown: His6, N-terminal, cleaved) SAPLPLDELRTFAEVLDRVKAAYVEPVDDKTLLENAIKGMLSNLDPHSAYLGPEDFAELQESTSGEFGGLGIEVGSEDGFIKVVSPIDDTPAARAGIQPGDLIVQIDGKPTKGQSMTEAVDSMRGKAGSPITLTIVRDGGRPFDVELKRAIIKVKSVKSQVLEPGYAYLRITQFQVNTGEEVVKALNQLRKDNKGRLKGLVLDLRNNPGGVLQSAVEVADAFLTKGLIVYTKGRIANSELRFSADPADPSDKVPLVVLINGGSASAAEIVAGALQDQKRAILMGTDSFGKGSVQTVLPLNNDRALKLTTALYYTPNGRSIQAQGIVPDIEVGRAKVTQERSSFEGFKEADLQGHLANGNGGADRPTGKRAAPSERPQDSDYQLSQALSLLKGL", "stoichiometry N": 2}
    ]}
  ]
}
